Data on two molecules can be found in article PMC4802042.

For test [1], the target named is double-phosphorylated JNK1 (phospho-JNK1) (human).
The target is the same in test [2]. The source holds these as a separate data set.

B1: MKP5 catalytic domain (MKP5-CD, residues 320-467) (domain or fragment)
chain: AELTPILPFLFLGNEQDAQDLDTMQRLNIGYVINVTTHLPLYHYEKGLFNYKRLPATDSNKQNLRQYFEEAFEFIEEAHQCGKGLLIHCQAGVSRSATIVIAYLMKHTRMTMTDAYKFVKGKRPIISPNLNFMGQLLEFEEDLNNGVT
Turning to B1, in test [1], the Km of MKP5-CD for pJNK1 substrate, relative to that of MKP7-CD stood at 20 fold.

B2: MKP7-CD (F285A) (domain or fragment)
chain: NIGPTRILPNLYLGCQRDVLNKELMQQNGIGYVLNASNTCPKPDFIPESHFLRVPVNDSFCEKILPWLDKSVDFIEKAKASNGCVLVHCLAGISRSATIAIAYIMKRMDMSLDEAYRFVKEKRPTISPNANFLGQLLDYEKKIKNQ
With B2, in test [2], the phosphatase activity for JNK1 dephosphorylation, relative to wild-type MKP7-CD (Fig. 4a) is 10 fold.
